From US20210380703A1 (RIGEL PHARMACEUTICALS, published 2021)
Residue numbers refer to the chain shown, from its start.

B1: 370_F10 (antibody, V domains shown)
VH: EVQLLESGGGLVQPGGSLRLSCAASGFTFSSYSMNWVRQAPGKGLEWVAGINYNGGYTSYADSVKGRFTISRDNSKNTLYLQMNSLRAEDTAVYYCARSANWHDTALDYWGQGTLVTVSS
VL: DIQMTQSPSSLSASVGDRVTITCRASQSIVSYLNWYQQKPGKAPKLVIYAATSRASGVPSRFSGSGSGTDFTLTISSLQPEDFATYYCQQSYNSPLTFGGGTKVEIK
B2: 371_A08 (antibody, V domains shown)
VH: B1 VH with S33G, N35H, A49S, G50S
VL: B1 VL with V30L, N93E, S94L
B3: 371_A12 (antibody, V domains shown)
VH: B1 VH with S30D, G55S
VL: B1 VL with V30L, L33V, R54L, N93D, S94T
B4: 370_G11 (antibody, V domains shown)
VH: B1 VH with G50S, G55S, A106H
VL: B1 VL with N93S, S94L
B5: 370_H09 (antibody, V domains shown)
VH: B1 VH with S33G, G50N
VL: B1 VL with L33V, V47L, N93D, S94N
B6: 371_A06 (antibody, V domains shown)
VH: B1 VH with S33G
VL: B1 VL with V30L, S31T, A55H, N93D
B7: 370_G09 (antibody, V domains shown)
VH: B1 VH with S33G, T58K
VL: B1 VL with V30L, L33V, N93E
B8: 370_G10 (antibody, V domains shown)
VH: B1 VH with S31D, S33G, A49S, G55S
VL: B1 VL with V30S, V47L, A50V, A51V, T52N, S53N, N93E, S94N
B9: 370_H01 (antibody, V domains shown)
VH: B1 VH with A49S, G55S, T58K, S59G
VL: B1 VL with V30I, V47L, A51V, N93D, S94T
B10: 370_G03 (antibody, V domains shown)
VH: B1 VH with G50N, S59G
VL: B1 VL with V30L, S31T, L33V, A51T, S94N
B11: 371_A07 (antibody, V domains shown)
VH: B1 VH with S31D, A49S, G50N, T58K
VL: B1 VL with V30L, A51T, N93D, S94L
B12: 370_G02 (antibody, V domains shown)
VH: B1 VH with S31D, G50N, T58K, S59G
VL: B1 VL with V47L, A55H, N93D
B13: 370_G06 (antibody, V domains shown)
VH: B1 VH with S31D, S33G, N35H, A49S, G50S
VL: B1 VL with V30L, L33V, Y92D, S94T
B14: 371_A03 (antibody, V domains shown)
VH: B1 VH with S31D, S33G, G50N, S59G
VL: B1 VL with V30L, A51T, N93E

Legend:
Human ACVR2A = target: T1, Human ACVR2A (human, UniProt P27037 20-135, limits assumed); experiment: ELISA
T1 construct: also called activin receptor, type II A
T1 sequence (P27037 20-135 limits assumed): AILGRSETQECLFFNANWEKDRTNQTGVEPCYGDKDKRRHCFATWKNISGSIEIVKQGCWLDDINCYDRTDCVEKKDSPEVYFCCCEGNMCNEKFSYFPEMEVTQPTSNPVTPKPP
Outline: (§1)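 mAb binding by ELISA; antigens: hu ACVR2A, mu ACVR2A; pos ctrl biotinylated goat anti-hu kappa LC; neg ctrl hu Fc.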

Mouse ACVR2A = Mouse ACVR2A (mouse, UniProt P27038 20-135, limits assumed); experiment: ELISA
Sequence of Mouse ACVR2A (P27038 20-135 limits assumed): as the sequence (P27037 20-135 limits assumed) above, with K20R, V73I counted along it
Outline: as §1

Goat anti-Human Kappa = target: T2, Goat anti-Human Kappa; experiment: ELISA, positive control
T2 construct: Positive control of the ELISA; also called biotinylated goat anti-human kappa light chain
Outline: as §1
Further: test concentration or dose not given here.

Binder | optical density (Human ACVR2A) | optical density (Mouse ACVR2A) | optical density (Goat anti-Human Kappa)
B1 | 3.15 OD | 3.22 OD | 3.64 OD
B2 | 1.06 OD | 1.16 OD | 2.44 OD
B3 | 3.17 OD | 3.3 OD | 3.63 OD
B4 | 2.98 OD | 3.07 OD | 3.72 OD
B5 | 2.95 OD | 3.28 OD | 3.54 OD
B6 | 2.65 OD | 2.79 OD | 3.51 OD
B7 | 3.01 OD | 3.14 OD | 3.64 OD
B8 | 2.98 OD | 2.74 OD | 3.49 OD
B9 | 3.31 OD | 3.18 OD | 3.65 OD
B10 | 3.1 OD | 3.44 OD | 3.58 OD
B11 | 2.88 OD | 3.06 OD | 3.65 OD
B12 | 2.98 OD | 3.22 OD | 3.62 OD
B13 | 2.19 OD | 2.33 OD | 3.41 OD
B14 | 2.84 OD | 2.62 OD | 3.56 OD
